Experimental findings from article PMC3750081 are described below.

Sequences and labels used below:
B1: p53 codon 248 both MeC O6-POB-G (dsDNA)
DNA 1: CATGAACCGGAGGCCCATC
DNA 2: GATGGGCCTCCGGTTCATG
modifications: O6-POB-dG at strand 1 position 9; 5-methyl-C at strand 1 position 8 and strand 2 position 11
B2: p53 codon 158 5'-MeC O6-POB-G (dsDNA)
DNA 1: ACCCGCGTCCGCGCCATGGCC
DNA 2: GGCCATGGCGCGGACGCGGGT
modifications: O6-POB-dG at strand 1 position 11; 5-methyl-C at strand 1 position 10 (text; Table 4 marks lost)
B3: p53 codon 248 5'-MeC O6-POB-G (dsDNA)
DNA 1: CATGAACCGGAGGCCCATC
DNA 2: GATGGGCCTCCGGTTCATG
modifications: O6-POB-dG at strand 1 position 9; 5-methyl-C at strand 1 position 8
B4: p53 codon 248 O6-POB-G (dsDNA)
DNA 1: CATGAACCGGAGGCCCATC
DNA 2: GATGGGCCTCCGGTTCATG
modifications: O6-POB-dG at strand 1 position 9
B5: p53 codon 248 O6-POB-G:MeC base pair (dsDNA)
DNA 1: CATGAACCGGAGGCCCATC
DNA 2: GATGGGCCTCCGGTTCATG
modifications: O6-POB-dG at strand 1 position 9; 5-methyl-C at strand 2 position 11

In general, Kd refers to the concentration at which binding is half-saturated. A higher Kd goes with lower affinity.

For the data set, the target named is AGT (O6-alkylguanine-DNA alkyltransferase) C145A (Homo sapiens, UniProt P16455 1-207, C145A). Description: EMSA. A general note: A gel shift assay detects complexes by their altered migration in electrophoresis.
AGT (O6-alkylguanine-DNA alkyltransferase) C145A, sequence (P16455 whole entry C145A): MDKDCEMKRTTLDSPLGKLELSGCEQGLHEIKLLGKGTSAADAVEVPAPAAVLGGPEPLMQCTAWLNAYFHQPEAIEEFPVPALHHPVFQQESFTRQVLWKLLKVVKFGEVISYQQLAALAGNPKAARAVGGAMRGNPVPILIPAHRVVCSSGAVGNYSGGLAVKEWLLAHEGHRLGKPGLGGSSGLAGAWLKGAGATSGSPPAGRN
On to B1, for which binding was characterised by a dissociation constant (Kd) of 1000 ± 100 nM.

In the case of B2, the Kd was determined as 4800 ± 500 nM. The result for B3 reads 2000 ± 200 nM; that for B4, 2200 nM; that for B5, 1800 ± 300 nM.
